# Laboratory results reported in the nanobody polyreactivity screen of Harvey et al. (2022).
# Assay: yeast display, Sf9 membrane polyspecificity reagent, FACS + sequencing; frameworks hold sequencing errors
# Summary of the method: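 Genes from sorted yeast were amplified by colony PCR, read by MiSeq 2 × 250 sequencing and filtered on CDR length. These cells carried a synthetic nanobody library in Saccharomyces cerevisiae BJ5465 and were sorted by FACS into low and high (top ~1%) gates on anti-HA and streptavidin fluorescence. Polyreactivity is labelled according to the gate of origin.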
row,Sequence,polyreactivity (PSR sort gate)
1,QVQLVESGGGLVQAGGSLRLSCAASGSIFGLYAMGWYRQAPGKERELVAAINQSGGSTSYADSVKGRFTISRDNAKNTVYLQMNSLKPEDTAVYYCNRVRLNTEGFDYWGQGTQVTVSS,low polyreactivity
2,QVQLVESGGGLVQAGGSLRLSCAASGSTFVRNVMGWYRQAPGKERELVAAITRSGDTTYYADSVKGRFTISRDNAKNTVYLQMNSLKPEDTAVYYCAKRTFVRRGSIYPIDDYWGQGTQVTVSS,low polyreactivity
3,QVQLVESGGGLVQAGRTLRLSCAASGRLFSHNAMGWYRQAPGKEREWVAAISGSGGSTYYADSVKGRFTISRDNAKNTVYLQMNSLKPEDTAVYYCAARFAVLVTRRFYYWGQGTQVTVSS,high polyreactivity
4,QVQLVESGGGLVQEGGSLRLSCAASGGIFFPNAMGWYRQAPGKERELVAAISWSAGSTYYADSVKGRFTISRDNAKNTVYLQMKSLKPEDTAVYYCAAAGSNYTVWFGYYYWGQVTQVTVSS,low polyreactivity
5,QVHLVESGGGLVQAGGSLRLSCAASARTFTQNAMVWYRQAPGKERELVAAITRSGGSTYYADSVKGRFTISRDYAKNTVYLQMNSLKPEDTAVYYFIKYTHYYDYDYWGQGTQVTVSS,high polyreactivity
6,QVQLVESGGGLVQAGGSLRLSCAASGSTFSRYTMGWYRQAPGKERELVAAIRRSGASTYYADSVKGRFTISRDNAKITVYLQMNSLKPEDTAVYYCAVGRYRYGYWGHGTQVTVSS,high polyreactivity
7,QVQLVESGGGLVQAGGSLRLSCAASGLTFSVYTMGWYRQAPGKERELVAAITTSGGRTYYADSVKGRFTISRDNAKNTVYLQMNSLKPEDTAVYYCAAVRTGDTTGTMGYWGQGTQVTVSS,high polyreactivity
8,QVQLVESGGGLVQAGGSLRLSCAASGRTFGSYAMAWYRQAPGKERELVAAITWSGTGTYYADSVKGRFTISRDNAKNTVYLQMKSLKPEVTAVYYCAARYASGRRGEYWGQGTQVTVSS,high polyreactivity
9,QVQLVESGGGLVQAGGSLRLSCAASGSIIGRNAMGWYRQAPGQEREMVAAISTRGGRTYYADSVKGRFTISRDNAKNNDYLQMNSLKPEDTAVYYCAAVGPYRWYDYWGQGTQVTVSS,high polyreactivity
10,QVHLQESGGGLVKAGGSLRLSCAASGTISPLPAMCWYRQAPGKEREFVAGIDTGAITNYADSVKGRFTISRDNAKNTVYLQMNSLKPEDTAVYYCAFFPAAYDYYERYYTYWGQGTQVTVSC,low polyreactivity
11,QVQLVESGGGLVQAGGSLRLSCAASGRIFVLNAMGWYRQAPGKERELVAAISGSGSRTYYADSVKGRFTISRDNAKNTVYLQMNSLKPEDTAVYYCNTVSRRSEHTYDYWGQGTQVTVSS,high polyreactivity
12,QVQLVESGGGLVQAGGSLRLSCAASGFTFSNYAMGWYRQAPGKERELVAAISRSGGSTYYADSVKGRFTISRDNAKNTVYLQMNSLKPEDTAVYYCNADRYRVWYRRYDYWGQGTQVTVSS,high polyreactivity
13,QVQLVESGGGLVQAGGSLRLSSAASGLIFVFYAMGWYRQAPGKERELVAAISTSGDRTYYADSVKGRFTISRDNAKNTVYLQMNSLKPEDTAVYYCAAGRRKVPYSREYYYWGQGTQVTVSS,high polyreactivity
14,QVQLVESGGGLVQAGGSLRLSCAASGSFFHDYSMGWYRQAPGKERELVAAIRWSGGSTYYADSVKGRFTISRDNAKNTVYVQMNSLKPEDTAVYYCNAVTFGRDNVQLVKFGYWGQGTQVTVSS,low polyreactivity
15,QVQLVESGGGLVQAGGSLRLSCAASGSTFVPYTMGWYRQAPGKERELVAAISSGDSTYYADSVKGRFTISRDNAKNTVYLQMNSLKPEDTAVYYCAADYQWFWVWYGYWGQGTQVTVSS,high polyreactivity
16,QVQLQESGGGLVQAGGSLRQSCEASGYIFPYYSMGWYRQAPGKERGLVACIAAGTTTNYADSVKVRFTISRDNAKNTVYLQMNSLKPEDAAVYYCAALNAFNPGHWYWGQGSQVTVSS,low polyreactivity
17,QVQLVESGGGLVQAGGSLRLSCAASGSIFRPYAMGRYRQAPGKERELVAAISWRSGRTYYADSVKGRFTISRDNAKNTVYLQMNSLKPEDTAVYYCAADLASYAYRYDYWGQGTQVTVSS,high polyreactivity
18,QVQLVESGGGLVQAGGSLRLSCAASGFIFDYYAMGWYRQAPGKERELVAAITSRGGSTYYADSVKGRFTISRDNAKNTVYLQMNSLKPEDTAVYYCNKDPHYYATGRFYYWGQGTQVTVSS,high polyreactivity
19,QVQLVESGGCLVQAGGSLRLSCAASGSTFRGNDMGWYRQAPGKEREFVAAITVSGGSTYYADSVKGRFTISRDNAKNTVYLQMNSLKPDDTAVYFCDARYLRYSSKTIQNEDYWGLGTQVTVSS,high polyreactivity
20,QVQLVESGGGLVQAGGSLRLSCAASGSIFGWYAMGLYRQAPGKERELVAAITFSSVSTYYADSVKGRFTISRDNAKNTVYLQMNSLKPEVTAVYYCGAVVYYTFDYWVQGTQVTVSS,low polyreactivity

row,Sequence,polyreactivity (PSR sort gate)
1,QVQLVESGGGLVQAGGSLRLSCAASGRIFTRNAMGWYRQAPGKEREFVAAISWSGGSTYYADSVKGRFTISRDNAKNTFYLQMNSLKPEDTAVYFCAAKNSGGYVSWYDYWGQGTQVTVSS,low polyreactivity
2,QVQLVESGGGLVQAGGSLRLSCAASGRIFGYYTMGWYRQAPGKERELVAGITRRGGRTYYADSVKGRFTISRDNAKNTVYLQMNSLKPEDTAVYYCAVRSGVNFYYWGQGTQVTVSS,high polyreactivity
3,QVQLVESGGGLVQAGGSLRLSCAASVFTFRGNAMGWYRQAPGKERELVAAITSSDDSTYYADSVKGRFTISRDNAKNTVYLQMNSLKPEDTAVYYCAAVANGYWTYEYWGQGTQVTVSS,low polyreactivity
4,QVQLVESGGGLVQAGGSLRLSCAASGFIFSQNTMGWYRQAPGKERELVAAISKSGGTTYYADSVKGRFTISRDNAKNTVYLQMNSLKPEDTAVYYCARDKGYVSYRYNYWGQGTQVTVSS,high polyreactivity
5,QVQLVDSGGGLVQAGGSLRLSCAASGRTFWQYAMGWYRQAPGKERELVAAISRSGGSTYYADSVKGRFTISRDNAQNTVSLQMNSLKPEDTAVYYCAAYYLGYNYDYWGQGTQVTVSS,high polyreactivity
6,QVQLVESGGGLVQAGGSLRLSCAASGSIFPSYAMGWYRPAPGTERELVAAISVSGGRTSYADSVKGRFTISRDNAKNTVYLQMNSLKPEDTAVYYCAVRSWSGYGLYNYWAQGTQVTVSS,high polyreactivity
7,QVQLVESGGGLLQAGGSLRLSCAASGRTLWIYAMGWYRQAPGKERELVASITTRGGSTYYADSVKGRFTISRDNAKNTVYLQMNSLKPEDTAVYYCARVSGARYTSYDYWGQGTQVTVSS,high polyreactivity
8,QVQLVESGGGLVQAGGSLRLSCAASGRIFNRYAMGLYSQAPGKERELVAAISYTGGRTYYADSVKGRFTISRDNAKNTVYLQRNCLTPEDTAVYYCNVYVIHWDFTTSSVRRFDYWGQGTQVNVSS,high polyreactivity
9,QVQLVESGGGLVQAGGSLRLSCAASGRIFRYYAMGWYRQAPGKERELVARISWSGGDTYYADSVKGRFTISRDNAKNTVYLQMNSLKPEDTAVYYCNAEAWYSVEYDYWGQGTQVTVSS,low polyreactivity
10,QVQLVESGGGLVQAGGSLRLSCAASGRIFYGNAMGWYRQAPGKERELVAAISSGTSTNYADSVKGLFTISRDNAKNTVYLQMHCLKPVDTAVYYCAAGSYSLYLYSLYFDFDYWGQGTQVTVSS,low polyreactivity
11,QVQLVESGGGLVQAGGSLRLSCAASGRIFQYYAMGWYRQAPGKERELVAAITRSGGSTYYADSVNGRFTISRDNAKNTVYLQMNSLKPEDTAVYYCARTYWITNSKFRDYLGAYGGEYWGQGTQVTVSS,high polyreactivity
12,QVQLVESGGGLVQAGGSLRLSCAASGRIFYPYAMGWYRQAPGKERELVAAISARGGSTYYADSVKGRFTISRDNAKNTVYLQMNSLKPEDTAVYYCATYTYRGVAEMDYWGQGTQVTVSS,high polyreactivity
13,QVQLVESGGGLVQAGGSLRLSCAASGFTFAVYVMGWYRQAPGKERELVATISFSVGSTYYADSVKGRFTISRDNAKNTVYLQMNSLKPEDTAVYDCNADPPPEYYPDKDNYWGQGTQVTVSS,low polyreactivity
14,QVQLVESGGGLVQAGGSLRLSCAASGNTFDIYAMGWYRQAPGKERELVAAISRRGGSTYYADSVKGRFTISRDNAKNTVYLQMNSLKPEDTAVYYCNTYSGPYSISDYWGQGTQVTVSS,high polyreactivity
15,QVQLVESGGGLVQAGASLRLSCAASGRTFHYYVKGWYRQAPGKERELVAAISRSGGRTYYADSVKGRFTISRDNAKNTVYLQMNSLNPEDTAVYFCAARSGYYYSEGAWRRDYWGQGTQVTLSS,high polyreactivity
16,QVQLVESGGGLVQAGGSLRLSCAASGSTFSRYAMGWYRQAPGKERELVAAISWRGGRTYYADSVKGRFTISRDNAKNTVYLPMNSLKPEDTAVYYCNAVSSFTSPRYAYWGQGTQVTVSS,high polyreactivity
17,QVQLVESGGGLVQAGGSLRLSCAASGRIYSYYARGWYRPAPGKERELVAAISRTGGTTYYADSVKGRFTISRDNAKNTVYLQMNSLKPEDTAVYYCAASGGYRPHRYQIGDYDYWGQGTQVTVSS,high polyreactivity
18,QVQLVESGGGLVQAGGSLRLSCAASGRIFVYYTMGWYRQAPGKERELVAAISTGGRTHYADSVKGRFTISRDNAKNTVYLQMNSLKPEDTAVYYCNAASWNGGLFQTKYGYWGQGTQVTVSS,high polyreactivity
19,QVQLVESGGGLVQAGCSLRLRCAASGFTFYSYAMGWYRQAPGKERELVANITIGGSTYADSVKGRFTISRDNAKNNVYLQMNSLNPEDTAVYYCARGYRVVGDPLYGEYDYWGQGSQVTVSS,low polyreactivity
20,QVQLVESGGGLVQAGGSLRLSCAASGIIFGTNAMGWSRQAPGKERELVAAITWSGGTYYADSVKGRFTISRDNAKNTVYLQMNSLKPEDTAVYYCAADGSGYYDWYYYWGQGTQVTVSS,low polyreactivity
